Experiments:
EPSPS enzymes = assay: Kinetic characterization of EPSPS enzymes (Km PEP, Ki glyphosate); assay type: biochemical; conditions: for Ki/Km: Ki glyphosate / Km PEP; for Km: Km of the EPSPS enzyme for phosphoenolpyruvate, PEP ranges tested in table footnotes
Description: The EPSPS enzymes from these microorganisms were then subjected to further study and analysis.
When the change introduced into the Petunia EPSPS (GA101) was introduced into a number of other EPSPS enzymes, similar changes in kinetics were observed, an elevation of the Ki for glyphosate and of the Km for PEP.
All protein purification procedures were carried out at 3–5° C. EPSPS enzyme assays were performed using either the phosphate release or radioactive HPLC method, as previously described in Padgette et al., 1987, using 1 mM phosphoenol pyruvate (PEP, Boehringer) and 2 mM shikimate-3-phosphate (S3P) substrate concentrations. For radioactive HPLC assays, ^14C-PEP (Amersham) was utilized. S3P was synthesized as previously described in Wibbenmeyer et al. 1988. N-terminal amino acid sequencing was performed by loading samples onto a Polybrene precycled filter in aliquots while drying. Automated Edman degradation chemistry was used to determine the N-terminal protein sequence, using an Applied Biosystems Model 470A gas phase sequencer (Hunkapiller et al., 1983) with an Applied Biosystems 120A PTH analyzer.

[1] = test system: rabbit anti-EPSPS antibody; assay: Western analysis with rabbit anti-EPSPS antibody to the Petunia EPSPS protein; assay type: binding; conditions: crude extracts 50 μg protein; control Petunia EPSPS 20 ng; Protein A-125I development
From the text: The presence of EPSPS activity in these extracts was confirmed by enzyme assay. This surprising result, indicating a lack of similarity between the EPSPS's from these bacterial isolates and those previously studied, coupled with the combination of a low Km for PEP and a high Ki for glyphosate, illustrates that these new EPSPS enzymes are different from known EPSPS enzymes (now referred to as Class I EPSPS).

CP4 EPSPS = biological target: T1, CP4 EPSPS (Agrobacterium sp., UniProt Q9R4E4, S2A); assay: EPSPS activity from native and synthetic CP4 EPSPS genes expressed in E. coli; assay type: biochemical, Agrobacterium sp. strain CP4
T1 construct: made in house; host or cells: E. coli, PRecA-gene10L vector
From the text: A synthetic CP4 gene was designed to change as completely as possible those inimical sequences discussed above. In summary, the gene sequence was redesigned to eliminate as much as possible the following sequences or sequence features (while avoiding the introduction of unnecessary restriction sites): stretches of G's and C's of 5 or greater; and A+T rich regions (predominantly) that could function as polyadenylation sites or potential RNA destabilization region The sequence of this gene is shown in FIG. 8 (SEQ ID NO:9). This coding sequence was expressed in E. coli from the RecA promoter and assayed for EPSPS activity and compared with that from the native CP4 EPSPS gene. […] The N-terminus of the coding sequence was mutagenized to place an SphI site at the ATG to permit the construction of the CTP2-CP4 synthetic fusion for chloroplast import. The following primer was used to accomplish this mutagenesis:
The EPSPS gene was isolated originally from Agrobacterium sp. strain CP4 and expresses a highly tolerant enzyme. The original gene contains sequences that could be inimical to high expression of the gene in some plants. […] The high G+C % in the CP4 EPSPS gene could also result in the formation of strong hairpin structures that may affect expression or stability of the RNA. A plant preferred version of the gene was synthesized and used for these vectors. This coding sequence was expressed in E. coli from a PRecA-gene10L vector (Olins et al., 1988) and the EPSPS activity was compared with that from the native CP4 EPSPS gene. […] The N-terminus of the coding sequence was then mutagenized to place an SphI site (GCATGC) at the ATG to permit the construction of the CTP2-CP4 synthetic fusion for chloroplast import. This change had no apparent effect on the in vivo activity of CP4 EPSPS in E. coli as judged by complementation of the aroA mutant. A CTP-CP4 EPSPS fusion was constructed between the Arabidopsis thaliana EPSPS CTP (Klee et al., 1987) and the CP4 EPSPS coding sequences. The Arabidopsis CTP was engineered by site-directed mutagenesis to place a SphI restriction site at the CTP processing site. This mutagenesis replaced the Glu-Lys at this location with Cys-Met. The CTP2-CP4 EPSPS fusion was tested for import into chloroplasts isolated from Lactuca sativa using the methods described previously (della-Cioppa et al., 1986: 1987).

LBAA EPSPS = assay: appKm and appKi of LBAA EPSPS wild type and G100A variant in E. coli crude lysates; assay type: biochemical, Achromobacter sp. strain LBAA; conditions: range of PEP: 2–40 μM
From the text: One difference that may be noted between the deduced amino acid sequences of the CP4 and LBAA EPSPS proteins is at position 100 where an Alanine is found in the case of the CP4 enzyme and a Glycine is found in the case of the LBAA enzyme. In the Class I EPSPS enzymes a Glycine is usually found in the equivalent position, i.e Glycine96 in E. coli and K. pneumoniae and Glycine101 in Petunia. In the case of these three enzymes it has been reported that converting that Glycine to an Alanine results in an elevation of the appKi for glyphosate and a concomitant elevation in the appKm for PEP (Kishore et al., 1986; Kishore and Shah, 1988; Sost and Amrhein, 1990), which, as discussed above, makes the enzyme less efficient especially under conditions of lower PEP concentrations. The Glycine100 of the LBAA EPSPS was converted to an Alanine and both the appKm for PEP and the appKi for glyphosate were determined for the variant. The Glycine100Alanine change was introduced by mutagenesis using the following primer:
and both the wild type and variant genes were expressed in E. coli in a RecA promoter expression vector (pMON17201 and pMON17264, respectively) and the appKm's and appKi's determined in crude lysates. […] However, in contrast to the results in the Class I G-A variants, the appKm(PEP) in the Class II (LBAA) G-A variant is unaltered. […]

T1 sequence (Q9R4E4 whole entry S2A): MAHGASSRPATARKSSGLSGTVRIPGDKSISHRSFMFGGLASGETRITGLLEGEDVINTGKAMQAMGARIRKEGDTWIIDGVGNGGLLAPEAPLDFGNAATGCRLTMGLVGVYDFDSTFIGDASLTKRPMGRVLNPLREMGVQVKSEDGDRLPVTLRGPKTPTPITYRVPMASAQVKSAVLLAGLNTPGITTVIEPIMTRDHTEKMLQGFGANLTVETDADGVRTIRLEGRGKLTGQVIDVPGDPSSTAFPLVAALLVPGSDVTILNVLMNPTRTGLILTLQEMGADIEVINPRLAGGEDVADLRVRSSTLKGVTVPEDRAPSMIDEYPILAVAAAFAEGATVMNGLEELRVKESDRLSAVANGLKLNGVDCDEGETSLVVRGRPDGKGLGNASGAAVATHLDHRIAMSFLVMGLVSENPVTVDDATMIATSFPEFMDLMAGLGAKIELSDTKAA

B1: CP4: Class II EPSPS enzyme from Agrobacterium sp. strain CP4 (SEQ ID NO:3) (protein, listed as Agrobacterium sp.)
chain: MSHGASSRPATARKSSGLSGTVRIPGDKSISHRSFMFGGLASGETRITGLLEGEDVINTGKAMQAMGARIRKEGDTWIIDGVGNGGLLAPEAPLDFGNAATGCRLTMGLVGVYDFDSTFIGDASLTKRPMGRVLNPLREMGVQVKSEDGDRLPVTLRGPKTPTPITYRVPMASAQVKSAVLLAGLNTPGITTVIEPIMTRDHTEKMLQGFGANLTVETDADGVRTIRLEGRGKLTGQVIDVPGDPSSTAFPLVAALLVPGSDVTILNVLMNPTRTGLILTLQEMGADIEVINPRLAGGEDVADLRVRSSTLKGVTVPEDRAPSMIDEYPILAVAAAFAEGATVMNGLEELRVKESDRLSAVANGLKLNGVDCDEGETSLVVRGRPDGKGLGNASGAAVATHLDHRIAMSFLVMGLVSENPVTVDDATMIATSFPEFMDLMAGLGAKIELSDTKAA
With B1 as the molecule, how does the Ki/Km (EPSPS enzymes) read?
The Ki/Km was 227.

What about the Km (EPSPS enzymes) of the same molecule?
The Km was 12 µM.

And the “signal in Western analysis with rabbit anti-EPSPS antibody” value [1]?
Its value is “no positive signal could be detected”.

What about the “appKm for PEP” value (CP4 EPSPS; expressed in E. coli from a PRecA-gene10L vector) of the same molecule?
Its value is 11.8 µM.

What about the Km (CP4 EPSPS; expressed in E. coli from the RecA promoter, read-out: apparent Km for PEP) of the same molecule?
Its Km is 11.8 µM.

B2: LBAA: Class II EPSPS enzyme from Achromobacter sp. strain LBAA (SEQ ID NO:5); wild type gene expressed from pMON17201 (protein, listed as Agrobacterium sp.)
chain: MSHSASPKPATARRSEALTGEIRIPGDKSISHRSFMFGGLASGETRITGLLEGEDVINTGRAMQAMGAKIRKEGDVWIINGVGNGCLLQPEAALDFGNAGTGARLTMGLVGTYDMKTSFIGDASLSKRPMGRVLNPLREMGVQVEAADGDRMPLTLIGPKTANPITYRVPMASAQVKSAVLLAGLNTPGVTTVIEPVMTRDHTEKMLQGFGADLTVETDKDGVRHIRITGQGKLVGQTIDVPGDPSSTAFPLVAALLVEGSDVTIRNVLMNPTRTGLILTLQEMGADIEVLNARLAGGEDVADLRVRASKLKGVVVPPERAPSMIDEYPVLAIAASFAEGETVMDGLDELRVKESDRLAAVARGLEANGVDCTEGEMSLTVRGRPDGKGLGGGTVATHLDHRIAMSFLVMGLAAEKPVTVDDSNMIATSFPEFMDMMPGLGAKIELSIL
For B2, which Ki/Km (EPSPS enzymes) is on record?
Its Ki/Km is ~7.9.

And the Km (EPSPS enzymes)?
Its Km is 7.3 to 8 µM.

And the “signal in Western analysis with rabbit anti-EPSPS antibody” value [1]?
Its value is “no positive signal could be detected”.

What about the “appKm(PEP)” value (LBAA EPSPS) of the same molecule?
Its value is 5.3 µM.

— patent US7183110B2, “Antibody immunoreactive with a 5-enolpyruvylshikimate-3-phosphate synthase” (Monsanto Technology LLC, priority 1990, dated 2007)
